# Source: patent US20230257457A1 (published 2023)
# B1: mouse human chimeric anti-R273H p53 antibody clone MH 13E4 (antibody, human IgG1, V domains shown)
# VH: EVQLLETGGDLVTPGGSLKLSCAASGFSFSDYYMYWVRQTPEKRLEWVATISVGGTYTFYSDNVKGRFVISRDNARKNLHLEMNSLKSEDAAMYYCVRDGNDGKFLGYWGQGTFVTVTV
# VL: DIVMTQSPLSLPVNLGDQVSLSCRSSQSIVHNNGDTYLEWYLQKPGQSPKLLIYKVSNRFSGVPDRFSGSGSGTDFTLKISRVEAEDLGIYYCFQGSHLPLTFGSGTKLELK
# notes: Mouse Fv with human IgG1 constant region; also called chimeric 13E4
# Biological target: T1, thioredoxin (Escherichia coli (strain K12), UniProt P0AA25 2-109 = thioredoxin)
# T1 construct: Negative control antigen; also called Trx; TrxA
# Experiment: ELISA (FIG. 64)
# T1 sequence (P0AA25 2-109 limits assumed): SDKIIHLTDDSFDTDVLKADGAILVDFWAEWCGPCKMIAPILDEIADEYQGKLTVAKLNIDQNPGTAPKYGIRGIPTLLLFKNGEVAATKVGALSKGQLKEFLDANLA
binder,measurement,value
B1,binding result,no binding (tested: 1 ng/µl)
